Positions of bridges follow the written chain, without caps; N, C: chain ends. Non-standard residues stand in square brackets, D forms with d. *: point of attachment. DOTA = O=C(O)CN1CCN(CC(=O)O)CCN(CC(=O)*)CCN(CC(=O)O)CC1
Target: T1, ACE2 on HEK-293 cells transfected with ACE2 (HEK-ACE2) (UniProt Q9BYF1 18-805)
T1 construct: ACE2 expressed in transfected HEK-293 cells; Expression verified earlier by western blotting (Beyer et al., 2023); also called ACE2-transfected HEK cells; source: HEK-293 cells transfected with ACE2, bought: Innoprot; on cells
T1 sequence (Q9BYF1 18-805): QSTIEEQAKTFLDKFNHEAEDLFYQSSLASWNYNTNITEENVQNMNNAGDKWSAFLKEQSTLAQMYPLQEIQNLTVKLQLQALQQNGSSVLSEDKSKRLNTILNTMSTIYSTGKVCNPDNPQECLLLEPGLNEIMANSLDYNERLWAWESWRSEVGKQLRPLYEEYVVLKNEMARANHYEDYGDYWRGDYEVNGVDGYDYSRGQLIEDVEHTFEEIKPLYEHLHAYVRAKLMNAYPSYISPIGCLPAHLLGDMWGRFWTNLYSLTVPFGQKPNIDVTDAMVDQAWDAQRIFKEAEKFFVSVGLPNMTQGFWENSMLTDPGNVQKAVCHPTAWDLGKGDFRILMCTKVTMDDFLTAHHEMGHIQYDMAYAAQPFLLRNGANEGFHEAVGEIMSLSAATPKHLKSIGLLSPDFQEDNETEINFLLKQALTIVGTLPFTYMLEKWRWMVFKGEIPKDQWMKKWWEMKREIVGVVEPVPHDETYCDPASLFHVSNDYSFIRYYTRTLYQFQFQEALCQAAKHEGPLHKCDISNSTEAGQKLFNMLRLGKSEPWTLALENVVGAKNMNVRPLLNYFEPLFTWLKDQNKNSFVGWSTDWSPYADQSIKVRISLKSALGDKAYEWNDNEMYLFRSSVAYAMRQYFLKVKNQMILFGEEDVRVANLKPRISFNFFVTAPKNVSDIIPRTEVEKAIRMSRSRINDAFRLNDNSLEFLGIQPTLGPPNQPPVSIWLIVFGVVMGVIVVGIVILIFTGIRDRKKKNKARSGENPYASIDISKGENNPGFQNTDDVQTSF
Assay: radioligand binding; saturation binding of the radiopeptide (1-2000 nM, 5 MBq/nmol) on HEK-ACE2 cells, 1 h at 4 °C on ice, DMEM without supplements; non-specific binding determined with 20 µM DX600; n = 3
Settings: one partner purified

B1: [67Ga]Ga-DOTA-WJL-63 (peptide)
peptide: Ac-[dY]STQISRGFTRDSRGCGSGSGSK(DOTA)-NH2
modifications: bridge N-16; not fully specified (bridges); also: DOTA loaded with 67Ga
notes: WJL-63 with DOTA on the side chain of the C-terminal lysine; printed in three-letter code; Same peptide as m1 with a DOTA chelator and 67Ga; made on Rink amide resin, so the C-terminus should be an amide as in m1; also called radiolabeled DOTA-WJL-63; WJL-63 radiopeptide; source: synthetic peptide, DOTA conjugated, radiolabeled with gallium-67, used without further purification
Kd: 90 nM

— PMC13142116, “Development and structure-guided characterization of a novel ACE2-binding macrocyclic peptide” (Journal of Structural Biology: X, 2026)
